Values of other authors, collected in article PMC12580572.

Legend:
[1] = biological target: GluK2 (Rattus norvegicus) (UniProt P42260)
[2] = biological target: GluK5 (Rattus norvegicus) (UniProt Q63273)
Chain of UniProt Q63273 (Q63273 15-979): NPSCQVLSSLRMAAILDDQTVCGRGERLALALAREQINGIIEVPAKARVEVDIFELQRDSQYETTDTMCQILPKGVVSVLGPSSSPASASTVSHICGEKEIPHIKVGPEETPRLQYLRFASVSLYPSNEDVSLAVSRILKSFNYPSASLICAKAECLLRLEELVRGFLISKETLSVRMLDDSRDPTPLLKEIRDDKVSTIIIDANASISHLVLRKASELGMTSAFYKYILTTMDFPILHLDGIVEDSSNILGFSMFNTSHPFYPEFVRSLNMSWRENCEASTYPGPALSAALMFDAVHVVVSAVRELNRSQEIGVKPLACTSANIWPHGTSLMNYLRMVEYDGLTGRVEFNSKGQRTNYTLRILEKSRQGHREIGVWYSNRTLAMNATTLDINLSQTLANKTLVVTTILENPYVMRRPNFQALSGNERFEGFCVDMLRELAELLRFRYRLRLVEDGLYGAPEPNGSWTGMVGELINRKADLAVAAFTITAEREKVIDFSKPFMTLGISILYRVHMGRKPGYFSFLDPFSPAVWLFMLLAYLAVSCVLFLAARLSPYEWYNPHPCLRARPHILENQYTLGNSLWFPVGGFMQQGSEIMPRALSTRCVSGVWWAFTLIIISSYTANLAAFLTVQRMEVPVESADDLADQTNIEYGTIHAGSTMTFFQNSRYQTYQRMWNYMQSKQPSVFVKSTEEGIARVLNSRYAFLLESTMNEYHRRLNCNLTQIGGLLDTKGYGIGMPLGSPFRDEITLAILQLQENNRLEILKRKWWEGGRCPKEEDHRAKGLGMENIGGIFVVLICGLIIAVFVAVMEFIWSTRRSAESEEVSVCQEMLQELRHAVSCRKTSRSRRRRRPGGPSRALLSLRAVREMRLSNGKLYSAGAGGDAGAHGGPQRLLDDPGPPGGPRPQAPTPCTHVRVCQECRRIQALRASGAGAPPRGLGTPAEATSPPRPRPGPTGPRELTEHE

Kd [1]: 350 nM
Kd [2]: 77 nM
Substance: GluK2 (from UniProt P42260)
